# From US5726291, “Amylase inhibitors” (Nisshin Flour Milling Co., Ltd., dated 1998)
# T1: human pancreatic α-amylase (human, UniProt P04746)
# T1 sequence: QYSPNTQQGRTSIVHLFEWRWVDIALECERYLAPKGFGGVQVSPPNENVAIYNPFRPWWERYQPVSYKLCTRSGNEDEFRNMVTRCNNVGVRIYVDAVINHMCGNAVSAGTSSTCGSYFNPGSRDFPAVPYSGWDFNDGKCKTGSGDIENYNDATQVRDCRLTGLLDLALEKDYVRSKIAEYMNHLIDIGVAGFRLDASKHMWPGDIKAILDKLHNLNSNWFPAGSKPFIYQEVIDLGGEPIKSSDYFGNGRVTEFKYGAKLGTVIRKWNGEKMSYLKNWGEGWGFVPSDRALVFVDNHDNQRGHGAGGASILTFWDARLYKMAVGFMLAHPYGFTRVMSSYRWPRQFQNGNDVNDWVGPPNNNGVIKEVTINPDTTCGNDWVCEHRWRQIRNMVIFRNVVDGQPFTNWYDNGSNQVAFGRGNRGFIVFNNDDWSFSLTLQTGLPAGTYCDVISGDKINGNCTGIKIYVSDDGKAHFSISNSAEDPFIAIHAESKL
# Target: T1, human pancreatic α-amylase
# Assay: cell-based or functional assay
row,Binder,Amylase inhibitory activity (U/mg)
1,Protein 0.19 AI (other) SGPWMCYPGQAFQVPALPACRPLLRLQCNGSQVPEAVLRDCCQQLAHISEWCRCGALYSMLDSMYKEHGAQEGQAGTGAFPRCRREVVKLTAASITAVCRLPIVVDASGDGAYVCKDVAAYPDA,20300
2,Protein 0.28 AI (other) SGPWSWCNPATGYKVSALTGCRAMVKLQCVGSQVPEAVLRDCCQQLADINNEWCRCGDLSSMLRAVYQELGVREGKEVLPGCRKEVMKLTAASVPEVCKVPIPNPSGDRAGVCYGDWCAYPDV,840
3,Protein 0.26 AI (other) SGPWMCYPGYAFKVPALPGCRPVLKLQCNGSQVPEAVLRDCCQQLADISEWCRCGALYSMLDSMYKEHGVQEGQAGTGAFPSCRREVVKLTAASITAVCKLPIVIDASGDGAYVCKGVAAYPDA,26100
4,Protein 0.53 AI (other) SGPWMCYPGQAFQVPALPGCRPLLKLQCNGSQVPEAVLRDCCQQLADISEWPRCGALYSMLDSMYKEHGVSEGQAGTGAFPSCRREVVKLTAASITAVCRLPIVVDASGDGAYVCKDVAAYPDA,3940
5,Protein (A) (other) SGPWMCYPGYAFKVPALPGCRPVLKLQCNGSQVPEAVLRDCCQQLADISEWCRCGALYSMLDSMYKEHGVQEGQAGTGAFPSCRREVVKLTAASITAVCKLPIVIDASGDGAYVCKGVAAYP,20500
